The source of these data is the supplement of paper PMC5998384.

Data set [1] concerns HeLa Kyoto. Put plainly: melting temperature (median over replicates), in situ; higher = more thermally stable.
The subject of data set [2] is HeLa Kyoto. Description: thermal stability score vs G1/S (z-score of summed log2 fold changes over temperatures); higher = more thermally stable than in G1/S.
The mark [3] stands for this setting: cell cycle stage: early G1 (4.5 h after nocodazole release).
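For melting temperature (median over replicates), in situ in this document: HeLa Kyoto cells synchronized by double thymidine or nocodazole block, proteins quantified by TMT10plex mass spectrometry, three independent biological replicates.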
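For thermal stability score vs G1/S (z-score of summed log2 fold changes over temperatures) in this document: synchronized HeLa Kyoto cells, proteins quantified by TMT10plex mass spectrometry, three biological replicates, mitosis taken 0.5 h after nocodazole release, G1/S directly after double thymidine block.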

For “MEFDCEGLRRLLGKYKFRDLTVEELRNVNVFFPHFKYSMDTYVFKDSSQKDLLNFTGTIPVMYQGNTYNIPIRFWILDSHPFAPPICFLKPTANMGILVGKHVDAQGRIYLPYLQNWSHPKSVIVGLIKEMIAKFQEELPMYSLSSSDEARQVDLLAYIAKITEGVSDTNSKSWANHENKTVNKITVVGGGELGIACTLAISAKGIADRLVLLDLSEGTKGATMDLEIFNLPNVEISKDLSASAHSKVVIFTVNSLGSSQSYLDVVQSNVDMFRALVPALGHYSQHSVLLVASQPVEIMTYVTWKLSTFPANRVIGIGCNLDSQRLQYIITNVLKAQTSGKEVWVIGEQGEDKVLTWSGQEEVVSHTSQVQLSNRAMELLRVKGQRSWSVGLSVADMVDSIVNNKKKVHSVSALAKGYYDINSEVFLSLPCILGTNGVSEVIKTTLKEDTVTEKLQSSASSIHSLQQQLKL [UEVLD]”, the melting temperature in data set [1] (cell cycle stage: G1/S) amounted to 49.9 °C; in data set [1] (cell cycle stage: mitosis), 50.1 °C. In addition, the thermal stability score in data set [2] (setting [3]) was -0.401; in data set [2] (cell cycle stage: mitosis) it was 0.298.
As to “MREYKLVVLGSGGVGKSALTVQFVQGIFVEKYDPTIEDSYRKQVEVDAQQCMLEILDTAGTEQFTAMRDLYMKNGQGFALVYSITAQSTFNDLQDLREQILRVKDTDDVPMILVGNKCDLEDERVVGKEQGQNLARQWNNCAFLESSAKSKINVNEIFYDLVRQINRKTPVPGKARKKSSCQLL [RAP1B]”, the melting temperature in data set [1] (cell cycle stage: G1/S) and in data set [1] (cell cycle stage: mitosis) was 58.5 °C in each case. Besides, the thermal stability score in data set [2] (setting [3]) is -0.701; in data set [2] (cell cycle stage: mitosis), -1.33.
Consider “MAYHSGYGAHGSKHRARAAPDPPPLFDDTSGGYSSQPGGYPATGADVAFSVNHLLGDPMANVAMAYGSSIASHGKDMVHKELHRFVSVSKLKYFFAVDTAYVAKKLGLLVFPYTHQNWEVQYSRDAPLPPRQDLNAPDLYIPTMAFITYVLLAGMALGIQKRFSPEVLGLCASTALVWVVMEVLALLLGLYLATVRSDLSTFHLLAYSGYKYVGMILSVLTGLLFGSDGYYVALAWTSSALMYFIVRSLRTAALGPDSMGGPVPRQRLQLYLTLGAAAFQPLIIYWLTFHLVR [YIF1A]”, for which, in data set [1] (cell cycle stage: G1/S), the melting temperature came to 57.2 °C. Further, the thermal stability score is -0.13 in data set [2] (setting [3]) and -2.04 in data set [2] (cell cycle stage: mitosis).
“MDLAANEISIYDKLSETVDLVRQTGHQCGMSEKAIEKFIRQLLEKNEPQRPPPQYPLLIVVYKVLATLGLILLTAYFVIQPFSPLAPEPVLSGAHTWRSLIHHIRLMSLPIAKKYMSENKGVPLHGGDEDRPFPDFDPWWTNDCEQNESEPIPANCTGCAQKHLKVMLLEDAPRKFERLHPLVIKTGKPLLEEEIQHFLCQYPEATEGFSEGFFAKWWRCFPERWFPFPYPWRRPLNRSQMLRELFPVFTHLPFPKDASLNKCSFLHPEPVVGSKMHKMPDLFIIGSGEAMLQLIPPFQCRRHCQSVAMPIEPGDIGYVDTTHWKVYVIARGVQPLVICDGTAFSEL [C6ORF89]” yielded a melting temperature in data set [1] (cell cycle stage: G1/S) of 53.2 °C. Besides, the thermal stability score was 0.0285 in data set [2] (setting [3]) and -2.22 in data set [2] (cell cycle stage: mitosis).
With “MELWPCLAAALLLLLLLVQLSRAAEFYAKVALYCALCFTVSAVASLVCLLRHGGRTVENMSIIGWFVRSFKYFYGLRFEVRDPRRLQEARPCVIVSNHQSILDMMGLMEVLPERCVQIAKRELLFLGPVGLIMYLGGVFFINRQRSSTAMTVMADLGERMVRENLKVWIYPEGTRNDNGDLLPFKKGAFYLAVQAQVPIVPVVYSSFSSFYNTKKKFFTSGTVTVQVLEAIPTSGLTAADVPALVDTCHRAMRTTFLHISKTPQENGATAGSGVQPAQ [AGPAT2]”, in data set [1] (cell cycle stage: mitosis), the melting temperature worked out at 52.2 °C. The values for the thermal stability score in data set [2] (setting [3]) and in data set [2] (cell cycle stage: mitosis) were -0.0581 and 0.548, respectively.
Turning to “MSSVQSQQEQLSQSDPSPSPNSCSSFELIDMDAGSLYEPVSPHWFYCKIIDSKETWIPFNSEDSQQLEEAYSSGKGCNGRVVPTDGGRYDVHLGERMRYAVYWDELASEVRRCTWFYKGDKDNKYVPYSESFSQVLEETYMLAVTLDEWKKKLESPNREIIILHNPKLMVHYQPVAGSDDWGSTPTEQGRPRTVKRGVENISVDIHCGEPLQIDHLVFVVHGIGPACDLRFRSIVQCVNDFRSVSLNLLQTHFKKAQENQQIGRVEFLPVNWHSPLHSTGVDVDLQRITLPSINRLRHFTNDTILDVFFYNSPTYCQTIVDTVASEMNRIYTLFLQRNPDFKGGVSIAGHSLGSLILFDILTNQKDSLGDIDSEKDSLNIVMDQGDTPTLEEDLKKLQLSEFFDIFEKEKVDKEALALCTDRDLQEIGIPLGPRKKILNYFSTRKNSMGIKRPAPQPASGANIPKESEFCSSSNTRNGDYLDVGIGQVSVKYPRLIYKPEIFFAFGSPIGMFLTVRGLKRIDPNYRFPTCKGFFNIYHPFDPVAYRIEPMVVPGVEFEPMLIPHHKGRKRMHLELREGLTRMSMDLKNNLLGSLRMAWKSFTRAPYPALQASETPEETEAEPESTSEKPSDVNTEETSVAVKEEVLPINVGMLNGGQRIDYVLQEKPIESFNEYLFALQSHLCYWESEDTVLLVLKEIYQTQGIFLDQPLQ [DDHD2]”, the values for the melting temperature in data set [1] (cell cycle stage: G1/S) and in data set [1] (cell cycle stage: mitosis) were 55.4 °C and 54.7 °C, respectively. Also, the thermal stability score in data set [2] (setting [3]) worked out at 1.25; in data set [2] (cell cycle stage: mitosis) it was 0.742.
As to “MREIVHIQAGQCGNQIGAKFWEVISDEHGIDPTGSYHGDSDLQLERINVYYNEAAGNKYVPRAILVDLEPGTMDSVRSGPFGQIFRPDNFVFGQSGAGNNWAKGHYTEGAELVDSVLDVVRKESESCDCLQGFQLTHSLGGGTGSGMGTLLISKIREEYPDRIMNTFSVMPSPKVSDTVVEPYNATLSVHQLVENTDETYSIDNEALYDICFRTLKLTTPTYGDLNHLVSATMSGVTTCLRFPGQLNADLRKLAVNMVPFPRLHFFMPGFAPLTSRGSQQYRALTVPELTQQMFDSKNMMAACDPRHGRYLTVAAIFRGRMSMKEVDEQMLNVQNKNSSYFVEWIPNNVKTAVCDIPPRGLKMSATFIGNSTAIQELFKRISEQFTAMFRRKAFLHWYTGEGMDEMEFTEAESNMNDLVSEYQQYQDATADEQGEFEEEEGEDEA [TUBB2A]”, the melting temperature is 56.7 °C in data set [1] (cell cycle stage: G1/S) and 54.9 °C in data set [1] (cell cycle stage: mitosis). Besides, the thermal stability score in data set [2] (setting [3]) is -0.598; in data set [2] (cell cycle stage: mitosis), -2.95.
For the sequence “MGLEAQRLPGAEEAPVRVALRVRPLLPKELLHGHQSCLQVEPGLGRVTLGRDRHFGFHVVLAEDAGQEAVYQACVQPLLEAFFEGFNATVFAYGQTGSGKTYTMGEASVASLLEDEQGIVPRAMAEAFKLIDENDLLDCLVHVSYLEVYKEEFRDLLEVGTASRDIQLREDERGNVVLCGVKEVDVEGLDEVLSLLEMGNAARHTGATHLNHLSSRSHTVFTVTLEQRGRAPSRLPRPAPGQLLVSKFHFVDLAGSERVLKTGSTGERLKESIQINSSLLALGNVISALGDPQRRGSHIPYRDSKITRILKDSLGGNAKTVMIACVSPSSSDFDETLNTLNYASRAQNIRNRATVNWRPEAERPPEETASGARGPPRHRSETRIIHRGRRAPGPATASAAAAMRLGAECARYRACTDAAYSLLRELQAEPGLPGAAARKVRDWLCAVEGERSALSSASGPDSGIESASVEDQAAQGAGGRKEDEGAQQLLTLQNQVARLEEENRDFLAALEDAMEQYKLQSDRLREQQEEMVELRLRLELVRPGWGGPRLLNGLPPGSFVPRPHTAPLGGAHAHVLGMVPPACLPGDEVGSEQRGEQVTNGREAGAELLTEVNRLGSGSSAASEEEEEEEEPPRRTLHLRRNRISNCSQRAGARPGSLPERKGPELCLEELDAAIPGSRAVGGSKARVQARQVPPATASEWRLAQAQQKIRELAINIRMKEELIGELVRTGKAAQALNRQHSQRIRELEQEAEQVRAELSEGQRQLRELEGKELQDAGERSRLQEFRRRVAAAQSQVQVLKEKKQATERLVSLSAQSEKRLQELERNVQLMRQQQGQLQRRLREETEQKRRLEAEMSKRQHRVKELELKHEQQQKILKIKTEEIAAFQRKRRSGSNGSVVSLEQQQKIEEQKKWLDQEMEKVLQQRRALEELGEELHKREAILAKKEALMQEKTGLESKRLRSSQALNEDIVRVSSRLEHLEKELSEKSGQLRQGSAQSQQQIRGEIDSLRQEKDSLLKQRLEIDGKLRQGSLLSPEEERTLFQLDEAIEALDAAIEYKNEAITCRQRVLRASASLLSQCEMNLMAKLSYLSSSETRALLCKYFDKVVTLREEQHQQQIAFSELEMQLEEQQRLVYWLEVALERQRLEMDRQLTLQQKEHEQNMQLLLQQSRDHLGEGLADSRRQYEARIQALEKELGRYMWINQELKQKLGGVNAVGHSRGGEKRSLCSEGRQAPGNEDELHLAPELLWLSPLTEGAPRTREETRDLVHAPLPLTWKRSSLCGEEQGSPEELRQREAAEPLVGRVLPVGEAGLPWNFGPLSKPRRELRRASPGMIDVRKNPL [KIF7]”, the melting temperature in data set [1] (cell cycle stage: G1/S) stood at 52.4 °C; in data set [1] (cell cycle stage: mitosis), 51.4 °C. The thermal stability score in data set [2] (setting [3]) was found to be 1.88; in data set [2] (cell cycle stage: mitosis) it was 2.73.
